Columns and labels:
[1] = molecular target: GM (GST - ICE-site linker - MBP model substrate for ICE) [GST: P08515]
[2] = molecular target: GG (GST - ICS linker - GFP model substrate for ICE) [GST: P08515]
[3] = molecular target: GG (GST - ICS linker - GFP model substrate for ICE) (human) [GST: P08515]; assay: cell-based or functional assay
[4] = molecular target: GG (GST - ICS linker - GFP model substrate for ICE) (human) [GST: P08515]
[5] = molecular target: T1, ICS (14 mer epitope that is part of human pro-IL-1beta) (human); assay: method not stated; 'measured in a different context' from the protease experiment
T1 chain: NEAYVHDGPVRSLN

Sequence of GM (GST - ICE-site linker - MBP model substrate for ICE) [GST: P08515] (P08515 whole entry, looked up): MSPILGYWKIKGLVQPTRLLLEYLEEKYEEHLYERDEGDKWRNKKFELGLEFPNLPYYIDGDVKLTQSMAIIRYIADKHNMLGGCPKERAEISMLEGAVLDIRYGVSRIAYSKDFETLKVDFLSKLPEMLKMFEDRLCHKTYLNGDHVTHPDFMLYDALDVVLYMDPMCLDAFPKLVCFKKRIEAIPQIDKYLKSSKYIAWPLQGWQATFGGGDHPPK
Sequence of GG (GST - ICS linker - GFP model substrate for ICE) [GST: P08515] (P08515 whole entry, looked up): as above

B1: interleukin converting enzyme (ICE) (protein)
chain: NPAMPTSSGSEGNVKLCSLEEAQRIWKQKSAEIYPIMDKSSRTRLALIICNEEFDSIPRRTGAEVDITGMTMLLQNLGYSVDVKKNLTASDMTTELEAFAHRPEHKTSDSTFLVFMSHGIREGICGKKHSEQVPDILQLNAIFNMLNTKNCPSLKDKPKVIIIQACRGDSPGVVWFKDSVGVSGNLSLPTTEEFEDDAIKKAHIEKDFIAFCSSTPDNVSWRHPTMGSVFIGRLIEHMQEYACSCDVEEIFRKVRFSFEQPDGRAQMPTTERVTLTRCFYLFPGH
How did the “cleavage of substrate by purified ICE” value [1] turn out when B1 was run?
Its value is “Purified ICE cuts both the GG and GM substrates efficiently under these conditions”.

And the “cleavage of substrate by purified ICE” value [2]?
The value was “Purified ICE cuts both the GG and GM substrates efficiently under these conditions”.

Which IC50 of inhibition of the cleavage of GG by ICE [3] does the source give for KARKEAELAAATAEQ (peptide, from a related filing) [synthetic LEPB] here?
The IC50 of inhibition of the cleavage of GG by ICE was 50 to 100 µM.

What about the IC50 (read off the curve), inhibition of ICE cleavage of GG [4] of the same binder?
Its IC50 (read off the curve), inhibition of ICE cleavage of GG is 80 µM.

KARKEAELAAATAEQ (modifications not checked) [LEPB] was tested. Which Kd [5] did it give?
The Kd was 2 µM.

From patent US7018801
